One test deals with HLA-A*24:02. The test can be described thus: IEDB peptide-MHC binding, purified MHC/competitive/fluorescence; ≥ and ≤ were set here for values at or beyond the usual limits of such assays.
Test [1] concerns the target HLA-B*07:02. Described as above. Particulars: source organism: Zaire ebolavirus.
In test [2] the target is HLA-B*08:01. The test is described as above.
Another test addresses HLA-A*01:01. In words: IEDB peptide-MHC binding, purified MHC/direct/fluorescence; filed as Kd, often an IC50 or EC50 that approximates it; ≥ and ≤ were set here for values at or beyond the usual limits of such assays.
The target in test [3] is HLA-A*02:01. Described as above.
For a further test, the target named is HLA-A*11:01. The description is as above.
Another test has as its target HLA-A*26:01. The test is described as above. To be noted: source organism: Mycobacterium tuberculosis str. Haarlem.
In a further test the target is HLA-A*26:02. Described as above.
A further test concerns the target HLA-A*26:03. Described as above.
Another test concerns the target HLA-A*31:01. The test is described as above.
In the next test the target is HLA-A*68:02. The test is described as above.
For test [4], the target named is HLA-B*07:02. The description is as above.
For test [5], the target named is HLA-B*08:01. The test is described as above.
Another test addresses HLA-B*08:02. The test is described as above.
Another test deals with HLA-B*08:03. Described as above.
Test [6] addresses HLA-B*15:01. The test is described as above.
Test [7] has as its target HLA-B*15:17. The description is as above.
The target of another test is HLA-B*18:01. The description is as above.
The target in the next test is HLA-B*27:05. The description is as above.
In a further test the target is HLA-B*40:01. Described as above.
Another test deals with HLA-B*46:01. Described as above.
A further test addresses HLA-B*48:01. The test is described as above.
For a further test, the target named is HLA-B*57:01. The test is described as above.
A further test has as its target HLA-B*58:01. Described as above.
The target of a further test is HLA-A*69:01. Described as above.
In another test the target is HLA-B*15:02. The test is described as above. To be noted: source organism: Aracatuba virus.
A further test has as its target HLA-B*39:01. The description is as above.
In test [8] the target is HLA-B*15:17. The test can be described thus: IEDB peptide-MHC binding, purified MHC/competitive/fluorescence; filed as Kd, often an IC50 or EC50 that approximates it; ≥ and ≤ were set here for values at or beyond the usual limits of such assays. Particulars: source organism: Vaccinia virus.
Another test has as its target HLA-B*35:01. Described as above. To be noted: source organism: Vaccinia virus.
In the next test the target is HLA-A*02:12. The test can be described thus: IEDB peptide-MHC binding, purified MHC/direct/fluorescence; filed as Kd, often an IC50 or EC50 that approximates it; ≥ and ≤ were set here for values at or beyond the usual limits of such assays. To be noted: source organism: Burkholderia mallei ATCC 23344.
The target of the next test is HLA-A*02:16. Described as above. To be noted: source organism: Burkholderia mallei ATCC 23344.
For a further test, the target named is HLA-A*02:19. Described as above. Particulars: source organism: Burkholderia mallei ATCC 23344.
For the next test, the target named is HLA-A*03:01. The description is as above. To be noted: source organism: Burkholderia mallei ATCC 23344.
A further test has as its target HLA-A*24:03. The test is described as above. To be noted: source organism: Burkholderia mallei ATCC 23344.
A further test has as its target HLA-A*29:02. The test is described as above. To be noted: source organism: Burkholderia mallei ATCC 23344.
In a further test the target is HLA-B*27:03. Described as above. Particulars: source organism: Burkholderia mallei ATCC 23344.
The next test has as its target HLA-B*15:09. The test is described as above. To be noted: source organism: Vibrio cholerae V52.
In a further test the target is HLA-B*44:02. The test is described as above. To be noted: source organism: Vibrio cholerae.
Another test has as its target HLA-A*30:01. In words: IEDB peptide-MHC binding, purified MHC/competitive/fluorescence; filed as Kd, often an IC50 or EC50 that approximates it; ≥ and ≤ were set here for values at or beyond the usual limits of such assays. To be noted: source organism: Vibrio cholerae 2740-80.
For test [9], the target named is HLA-A*02:01. In words: IEDB peptide-MHC binding, purified MHC/competitive/fluorescence; ≥ and ≤ were set here for values at or beyond the usual limits of such assays.
The target of test [10] is HLA-B*15:01. The description is as above. Particulars: source organism: Zaire ebolavirus.
The mark [11] stands for this setting: source organism: Zaire ebolavirus.
[12] abbreviates: source organism: Mycobacterium tuberculosis.
Where [13] appears, read: source organism: Mycobacterium tuberculosis str. Haarlem.
The mark [14] stands for this setting: source organism: Aracatuba virus.
[15] abbreviates: source organism: Burkholderia mallei ATCC 23344.
The mark [16] stands for this setting: source organism: Vibrio cholerae.
[17] abbreviates: source organism: Vibrio cholerae V52.
The mark [18] stands for this setting: source organism: Vaccinia virus Copenhagen.

Turning to ERGVRLHPL, the IC50 was 44.3 µM with HLA-A*24:02 (setting [11]), at least 95.4 µM with HLA-B*07:02 [1] and 8.92 µM with HLA-B*08:01 [2] (setting [11]).
For KYFVRSTEK, the Kd was at least 20 µM in the test with HLA-A*01:01 (setting [12]); at least 20 µM in the test with HLA-A*02:01 [3] (setting [12]); 1.79 µM with HLA-A*11:01 (setting [12]); at least 20 µM in the test with HLA-A*26:01; at least 20 µM with HLA-A*26:02 (setting [13]); at least 20 µM with HLA-A*26:03 (setting [13]). The Kd with HLA-A*31:01 (setting [12]) is 0.0021 µM; with HLA-A*68:02 (setting [12]), at least 20 µM; with HLA-B*07:02 [4] (setting [12]), at least 20 µM; with HLA-B*08:01 [5] (setting [13]) it was at least 20 µM; with HLA-B*08:02 (setting [13]), at least 20 µM; with HLA-B*08:03 (setting [13]) it was at least 20 µM. For the same sequence, the Kd is at least 20 µM with HLA-B*15:01 [6] (setting [12]); at least 20 µM with HLA-B*15:17 [7] (setting [12]); at least 20 µM in the test with HLA-B*18:01 (setting [12]); at least 20 µM in the test with HLA-B*27:05 (setting [12]); at least 20000 nM with HLA-B*40:01 (setting [12]); at least 20 µM with HLA-B*46:01 (setting [12]). Moreover, the Kd in the test with HLA-B*48:01 (setting [12]), with HLA-B*57:01 (setting [12]) and in the test with HLA-B*58:01 (setting [12]) was at least 20 µM throughout.
Turning to LLLLISLVY, the Kd in the test with HLA-A*01:01 (setting [14]), with HLA-A*02:01 [3] (setting [14]), in the test with HLA-A*11:01 (setting [14]), with HLA-A*26:02 (source organism: Variola virus), in the test with HLA-A*26:03 (source organism: Variola virus) and with HLA-A*31:01 (setting [14]) was at least 20 µM each time. In addition, the equilibrium dissociation constant (Kd) is at least 20 µM with HLA-A*68:02 (setting [14]); at least 20 µM with HLA-A*69:01 (setting [14]); at least 20 µM with HLA-B*07:02 [4] (setting [14]); at least 20 µM with HLA-B*08:02 (source organism: Variola virus); at least 20 µM with HLA-B*15:01 [6] (setting [14]); 4.57 µM in the test with HLA-B*15:02. Moreover, the Kd with HLA-B*27:05 (setting [14]), in the test with HLA-B*39:01 (source organism: Variola virus), with HLA-B*46:01 (setting [14]), with HLA-B*48:01 (setting [14]), with HLA-B*57:01 (setting [14]) and in the test with HLA-B*58:01 (setting [14]) was at least 20 µM throughout. In addition, the equilibrium dissociation constant (Kd) with HLA-B*15:17 [8] and with HLA-B*35:01 was at least 20 µM in each case.
With MSADNAGAL, the Kd in the test with HLA-A*02:01 [3] (setting [15]), with HLA-A*02:12, in the test with HLA-A*02:16, with HLA-A*02:19, in the test with HLA-A*03:01 and with HLA-A*24:03 was at least 20 µM in each case. The Kd with HLA-A*29:02, with HLA-B*18:01 (setting [15]), in the test with HLA-B*27:03 and with HLA-B*57:01 (setting [15]) was at least 20 µM throughout.
With REVFDYLLP, the Kd with HLA-A*01:01 (setting [16]), in the test with HLA-A*02:01 [3] (setting [16]), with HLA-A*11:01 (setting [16]), with HLA-A*26:02 (setting [17]), with HLA-A*26:03 (setting [17]) and with HLA-A*31:01 (setting [16]) was at least 20 µM each time. Further, the equilibrium dissociation constant (Kd) with HLA-A*68:02 (setting [16]), with HLA-A*69:01 (setting [16]), in the test with HLA-B*07:02 [4] (setting [16]), with HLA-B*08:01 [5] (setting [17]), in the test with HLA-B*08:02 (setting [17]) and in the test with HLA-B*08:03 (setting [17]) was at least 20 µM in each case. Further, the dissociation constant (Kd) is at least 20 µM with HLA-B*15:09; at least 20 µM in the test with HLA-B*15:17 [7] (setting [16]); at least 20 µM with HLA-B*18:01 (setting [16]); at least 20 µM in the test with HLA-B*27:05 (setting [16]); at least 20 µM with HLA-B*39:01 (setting [17]); 77 nM with HLA-B*40:01 (setting [16]). Also, the dissociation constant (Kd) with HLA-B*44:02, with HLA-B*48:01 (setting [16]), with HLA-B*57:01 (setting [16]), with HLA-B*58:01 (setting [16]) and in the test with HLA-A*30:01 was at least 20 µM each time.
For the sequence VMNHKNKFM, the concentration for half-maximal inhibition (IC50) in the test with HLA-A*02:01 [9] (setting [11]) stood at 3.51 µM; in the test with HLA-A*24:02 (setting [11]) it was 2.14 µM; with HLA-B*08:01 [2] (setting [11]) it was 8.29 µM; with HLA-B*15:01 [10], 18 µM.
Turning to YFLKIKVTA, the results for the half-inhibitory concentration (IC50) in the test with HLA-A*02:01 [9] (setting [18]), with HLA-A*24:02 (setting [18]) and with HLA-B*08:01 [2] (setting [18]) were 6.34 µM, 3.76 µM and 8.88 µM, respectively.

As a reminder, the IC50 is the concentration that gives 50% inhibition. The Kd is a measure of binding affinity in units of concentration. A high value points to weaker binding.
